In PMC10509167, “Identification and characterization of endo-α-, exo-α-, and exo-β-D-arabinofuranosidases degrading lipoarabinomannan and arabinogalactan of mycobacteria” (Nature Communications, 2023):

Tests used:
[1] = substrate: O=[N+]([O-])c1ccc(O[C@@H]2O[C@H](CO)[C@@H](O)[C@@H]2O)cc1; assay: purified protein; assay type: biochemical, Microbacterium arabinogalactanolyticum; details: 37 °C, 50 mM sodium phosphate pH 6.0
[2] = substrate: O=[N+]([O-])c1ccc(O[C@H]2O[C@H](CO)[C@@H](O)[C@@H]2O)cc1; assay: purified protein; assay type: biochemical, Microbacterium arabinogalactanolyticum; details: 37 °C, 50 mM sodium acetate pH 5.5

B1: ExoMA2 (MIAR_33170) (Microbacterium arabinogalactanolyticum) (protein)
chain: SRRARRIPHTAESVAFPLGGIGTGNVSLGARGELRDWEFENLPDKGRLNPRSFFAIHAAPQGGPSATRVLEARSSGRHDRDAGYGFDELAGLPRLDSAGLHGEYPVVDIDFTDATLPVTVSLHAFTPLVPLDADASGIPAAVLRYRVVNPGDAPVTVTVVGSMSHTAGRGAPGPDAPWGMRGTQSVRWRESDGIRGLDFDIDLDHDDPGYGTMSLTTTDSSTTVKPQWVTSYWPDGARLFWNDLADDGLLAPEARLTLEDKPRGLFAERDADPDAPALTEEQMLAKLPRVRTGSLGIVHTLAPGEERDFEFVLAWSFPNRRRGWHGHIIFDDALEDGAPDLRDELGPIVRNHYAVRWPDAWAAAAQLHRDLPALEGATDAFVEELYGGSLDPVLADAVGANIAALRSTTCFVLESPTPELGDGPVFAAWEGSFDHGGSCEGTCTHVWSYAQTAAWLFPGLERSARRAEYLLETDESGAQKFRGNRIFGAPRWFIGPAVDGQLGTFLRLHREWRFCGDDEFLRELWPAAARTLDYAAREWDHDGDGLLDGEMHNTYDIEFHGVEPLSNIIHLAALRAGVRMAGHLGDTARAQEWALRADHVAAAIEGVLWNGEYYRQVIDDVDAHRYQYGDGVLSDQLLGQFHAFLGGLGYLLPEAHVRSALDAIVQHNHRGDLRDHESTQRVYALNDEGGLLLASWPEGGRPALPFVYADEVWTGIEHQVAVSLLFAGRYDDALRIERTLRARYDGAHRSPWNEIECGNHYARSLASWGLLIGASGAQWDAGARTLSFDPVLPGDARFLFTTATGWGGVEIGDDVITLRLHGGALDLDELRLRGEVAGRGIHLDAGETRTLTLT
notes: dimer
With B1 as the protein, how does the Km [1] read?
Its Km is 2730 µM.

What about the kcat [1] of the same protein?
Its kcat is 12.0 s⁻¹.

B2: ExoMA1 (MIAR_33200) (Microbacterium arabinogalactanolyticum) (protein)
chain: MPDLNSIAALRQVQTRSISPENFDGTAGGGGRATEGTGADCARDLGPGWKISPSVDIKAGETFELASIEGAGKITHIWITTHTDNWRTLILRAFWDGADEPAVEVPYGDFFCNGWGVFAQVNSQAIAANPHGGFNSYWPMPFRDGARLTIENTSVVDVRVYYQVTYEIGGDHSNDAYFHAQWRRSNPLEELTPHVILEGIEGEGHYVGTYIAWGVNSNGWWGEGEIKFYLDDDTDHPTICGTGTEDYFGGAWNFDIPGKGYTEFSTPYLGMPQVIRPDGLYVSQQRFGMYRWHLQDPIHFATGIPKVDIQALGWRSGWRYLPLRDDIASTAMFYLDRPTARRPKSPSADDMEVHLGTAPVPDLGATPPRV
notes: dodecamer
For B2, which Km [2] is on record?
Its Km is 2550 µM.

And the kcat [2]?
Its kcat is 44.4 s⁻¹.
